How the values were obtained:
[1] = biological target: the molecule itself; experiment: cross-linking; NFL1B at 1 and 2 mg/mL, 0.008% or 0.024% glutaraldehyde, SDS-PAGE
[2] = biological target: the molecule itself; experiment: SEC + cross-linking; 250 uL of 2 mg/mL protein on Superose 6 Increase 10/300 GL in 5 mM HEPES pH 8.0, 0.5 mM EGTA, 2 mM DTT; samples from each peak cross-linked with 0.024% glutaraldehyde at 30 °C for 60 min, SDS-PAGE in 12.5% gel

B1: NFL1B (neurofilament light chain protein, coil 1B, Ser133-Ile243) (domain or fragment, human, UniProt P07196 133-243, looked up)
chain: SRFRALYEQEIRDLRLAAEDATNEKQALQGEREGLEETLRNLQARYEEEVLSREDAEGRLMEARKGADEAALARAELEKRIDSLMDEISFLKKVHEEEIAELQAQIQYAQI
notes: neurofilament light chain protein (NFL), human, product of the NEFL gene, UniProt P07196, coil 1B, residues Ser133-Ile243; Dimer at 1-2 mg/mL; larger oligomers also at 5 mg/mL; also called NFL coil 1B domain; source: E. coli C41, purified from the fraction of soluble proteins (HisTrap HP, imidazole gradient)
For B1, the “stoichiometry N” value [1] was 2.

B2: NFLROD (neurofilament light chain protein rod domain, coils 1A, 1B and 2, Ser80-Glu396) (domain or fragment, human, UniProt P07196 80-396, looked up)
chain: SNDLKSIRTQEKAQLQDLNDRFASFIERVHELEQQNKVLEAELLVLRQKHSEPSRFRALYEQEIRDLRLAAEDATNEKQALQGEREGLEETLRNLQARYEEEVLSREDAEGRLMEARKGADEAALARAELEKRIDSLMDEISFLKKVHEEEIAELQAQIQYAQISVEMDVTKPDLSAALKDIRAQYEKLAAKNMQNAEEWFKSRFTVLTESAAKNTDAVRAAKDEVSESRRLLKAKTLEIEACRGMNEALEKQLQELEDKQNADISAMQDTINKLENELRTTKSEMARYLKEYQDLLNVKMALDIEIAAYRKLLEGE
notes: neurofilament light chain protein (NFL), human, product of the NEFL gene, UniProt P07196, rod domain (coils 1A, 1B and 2), residues Ser80-Glu396; The monomer mass used for DSC is 36.6 kDa; also called NFL rod domain; full rod domain (1A+1B+2); source: E. coli C41, inclusion bodies solubilised in 8 M urea, purified (HisTrap HP), renatured by dialysis
In the case of B2, the “stoichiometry N” value [2] is reported as 4.

B3: NFL_(1B+2) (neurofilament light chain protein, coils 1B and 2, Ser133-Glu396) (domain or fragment, human, UniProt P07196 133-396, looked up)
chain: SRFRALYEQEIRDLRLAAEDATNEKQALQGEREGLEETLRNLQARYEEEVLSREDAEGRLMEARKGADEAALARAELEKRIDSLMDEISFLKKVHEEEIAELQAQIQYAQISVEMDVTKPDLSAALKDIRAQYEKLAAKNMQNAEEWFKSRFTVLTESAAKNTDAVRAAKDEVSESRRLLKAKTLEIEACRGMNEALEKQLQELEDKQNADISAMQDTINKLENELRTTKSEMARYLKEYQDLLNVKMALDIEIAAYRKLLEGE
notes: neurofilament light chain protein (NFL), human, product of the NEFL gene, UniProt P07196, coils 1B and 2, residues Ser133-Glu396; The monomer mass used for DSC is 30.4 kDa; source: E. coli C41, inclusion bodies solubilised in 8 M urea, purified (HisTrap HP), renatured by dialysis
In the case of B3, the “stoichiometry N” value [2] is reported as 4.

B4: NFL_(1A+1B) (neurofilament light chain protein, coils 1A and 1B, Ser80-Ile243) (domain or fragment, human, UniProt P07196 80-243, looked up)
chain: SNDLKSIRTQEKAQLQDLNDRFASFIERVHELEQQNKVLEAELLVLRQKHSEPSRFRALYEQEIRDLRLAAEDATNEKQALQGEREGLEETLRNLQARYEEEVLSREDAEGRLMEARKGADEAALARAELEKRIDSLMDEISFLKKVHEEEIAELQAQIQYAQI
notes: neurofilament light chain protein (NFL), human, product of the NEFL gene, UniProt P07196, coils 1A and 1B, residues Ser80-Ile243; The monomer mass used for DSC is 19.2 kDa; also called coil 1; source: E. coli C41, purified from the fraction of soluble proteins (HisTrap HP, imidazole gradient)
In the case of B4, the “stoichiometry N” value [2] is reported as 2.

B5: NFL2 (neurofilament light chain protein, coil 2, Val249-Glu396) (domain or fragment, human, UniProt P07196 249-396, looked up)
chain: VTKPDLSAALKDIRAQYEKLAAKNMQNAEEWFKSRFTVLTESAAKNTDAVRAAKDEVSESRRLLKAKTLEIEACRGMNEALEKQLQELEDKQNADISAMQDTINKLENELRTTKSEMARYLKEYQDLLNVKMALDIEIAAYRKLLEGE
notes: neurofilament light chain protein (NFL), human, product of the NEFL gene, UniProt P07196, coil 2, residues Val249-Glu396; The monomer mass used for DSC is 16.9 kDa; also called NFL coil 2; source: E. coli C41, inclusion bodies solubilised in 8 M urea, purified (HisTrap HP), renatured by dialysis
With B5 the “stoichiometry N” value [2] was 2.

Reference: paper PMC10813002, “Neurofilament Light Protein Rod Domain Exhibits Structural Heterogeneity” (Biomolecules, 2024)
